From patent publication US20240189351A1 (US Dept. of Health and Human Services, published 2024) come the findings set out here.

The assay addresses T1, recombinant human IL-13Rα2Fc chimera protein (R&D) (human, UniProt Q14627 27-343, biotinylated (sulfo-NHS-biotin) in the immunofluorescence assay only).
T1 construct: Bought protein (R&D); It was used biotinylated in the IFA and unlabelled in the migration assay; also called huIL-13Rα2Fc chimeric protein; HuIL-13Rα2Fc; Fc part of the bought chimera not given
T1 sequence (looked up): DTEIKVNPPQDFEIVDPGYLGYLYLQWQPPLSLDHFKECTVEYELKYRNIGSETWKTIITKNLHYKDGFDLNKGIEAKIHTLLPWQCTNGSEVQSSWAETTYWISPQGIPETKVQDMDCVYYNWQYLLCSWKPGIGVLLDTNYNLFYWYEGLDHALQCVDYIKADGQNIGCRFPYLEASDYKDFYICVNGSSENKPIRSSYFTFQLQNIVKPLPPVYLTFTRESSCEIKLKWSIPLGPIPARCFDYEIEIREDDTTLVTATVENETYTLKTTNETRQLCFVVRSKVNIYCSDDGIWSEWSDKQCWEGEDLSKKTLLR
The assay can be described thus: method not stated; affinity for recombinant IL-13Rα2Fc compared with the previously cloned scFv.

B1: IL-13Rα2 scFv (improved scFv-IL-13Rα2) (scFv)
scFv: QVQLVQSGAEVKKPGASVKVSCKASGYTFTSYAMHWVRQAPGQRLEWMGWINAGNGNTKYSQKFQGRVTITRDTSASTAYMELSSLRSEDTAVYYCARMNHMIPLKAWGQGTLVTVSSGGGGSGGGGSGGSALAIQMTQSPSSLSASVGDRVTITCRASQGIRNDLGWYQQKPGKAPKLLIYAASSLQSGVPSRFSGSGSGTDFTLTISSLQPEDFATYYCLQMYNYRTFGQGTKLEIKRA
notes: also called clone derived protein
For the molecule B1, the “fold higher binding affinity compared to the previously cloned scFv ECD-IL-13Rα2 (Kioi et al. 2008)” value is more than 4 fold.
